Test results from patent US9796965B2, “Use of Taq polymerase mutant enzymes for nucleic acid amplification in the presence of PCR inhibitors” (DNA Polymerase Technology Inc., priority 2006, dated 2017).
“Also recorded” adds a separate entry of the source.

Legend:
[1] = Functional analysis of codon 708 saturated mutagenesis variants for resistance to PCR inhibitors; type: biochemical; conditions: for functionality of the 708 substitution: KlenTaq or full-length Taq background
Description: Single amino acid changes of the wild type Taq Glu708 were implicated in both selected qualities of the mutants, blood and soil-resistance.
Saturated mutagenesis was performed at codon 708 of Taq to test functionally the full spectrum of all possible substitutions at this critical position.

[2] = system: 630 bp CCR5 gene target; assay: Real-time PCR of human CCR5 target mixed with crude soil extract and SYBR titration; type: biochemical; conditions: 4 ng human DNA mixed with crude soil extract, SYBR titrated
Description: A 630 bp CCR5 gene target was amplified from 4 ng of human DNA mixed with crude soil extract and various amounts of SYBR. Klentaq-10 mutant enzyme was compared to it's wild type precursor, and FLAC-22 (SEQ ID NO: 2) was compared to the wild type Fast Start Taq polymerase (Roche). SYBR Green fluorescent dye was titrated to optimize the fluorescent signal for real time detection. PCR was performed in real-time cycler Opticon2, and the amplified products were analyzed both by gel electrophoresis (bottom panels) and SYBR Green dye melting curve profile (top panels).

[3] = system: 0.32 kbp 16S microbial target; assay: Real-time PCR of 16S microbial target double challenged with 5% blood and SYBR green dilutions; conditions: for amplification under double challenge: SYBR green dilutions from 32×, 40 cycles
[4] = system: 0.6 kbp Bacillus cereus target DNA; assay: Real-time PCR of 0.6 kbp Bacillus cereus target challenged with two-fold SYBR green dilutions; conditions: for SYBR concentration above which amplification failed / SYBR concentration in the presence of which the 0.6 kbp Bacillus cereus target DNA was amplified: 2.5 units enzyme per 50 ul, 20 pg genomic DNA, 40 cycles, no blood
[5] = system: endogenous 600 bp target of Bacillus Cereus; assay: Real-time PCR of endogenous Bacillus Cereus target from crude soil extract; type: biochemical; conditions: soil extract 16%, 8%, 4%, 2%
[6] = system: 244 bp influenza virus RNA target; type: biochemical; conditions: purified RNA and mimic crude samples with 8% plasma, serum, whole blood; PEC-Plus enhancer
[7] = system: 0.6 kbp Bacillus cereus target DNA; assay: Real-time PCR of Bacillus cereus target double challenged with 5% and 10% blood and SYBR green dilutions
[8] = system: 244 bp influenza virus target; type: biochemical; conditions: 5% human serum, 200 μM TaqMan probe, PEC-Plus enhancer
[9] = system: anthrax genome target (1.3 kb Bacillus anthracis); type: biochemical; conditions: 5% human blood, 32× SYBR Green
[10] = system: 0.25 kbp Lambda specific target; assay: Real-time PCR of Lambda target challenged with two-fold SYBR green dilutions; conditions: for SYBR concentration in the presence of which the 0.25 kbp lambda target was amplified: purified DNA template, 2.5 units per 50 ul, 35 cycles

FLAC-10: full-length Taq mutant with K substitution at 708, corresponding to Klentaq10
functionality of the 708 substitution [1]: efficient

Fast Start Taq: commercial wild type Taq enzyme (Roche)
melting curve profile in crude soil samples [2]: showed a melting curve at very low SYBR concentration
post PCR melting curve analysis ([3]; 5% blood): did do not show the correct melting temperature of the product at all
amplification under double challenge ([3]; 5% blood): able to amplify only the positive control
SYBR concentration above which amplification failed [4]: higher than 0.2 ×

FLAC-4: full-length Taq mutant with I substitution at 708
functionality of the 708 substitution [1]: only functional in Taq

FLAC-12: full-length Taq mutant with L substitution at 708, corresponding to Klentaq 12
functionality of the 708 substitution [1]: efficient

FLAC-3: full-length Taq mutant with Q substitution at 708
functionality of the 708 substitution [1]: only functional in Taq

B1: KlenTaq-10: SEQ ID NO: 1; N-terminal deletion at 278 of full-length wild type Taq with substitutions E626K, I707L, E708K (protein)
chain: MGLLHEFGLLESPKALEEAPWPPPEGAFVGFVLSRKEPMWADLLALAAARGGRVHRAPEPYKALRDLKEARGLLAKDLSVLALREGLGLPPGDDPMLLAYLLDPSNTTPEGVARRYGGEWTEEAGERAALSERLFANLWGRLEGEERLLWLYREVERPLSAVLAHMEATGVRLDVAYLRALSLEVAEEIARLEAEVFRLAGHPFNLNSRDQLERVLFDELGLPAIGKTEKTGKRSTSAAVLEALREAHPIVEKILQYRELTKLKSTYIDPLPDLIHPRTGRLHTRFNQTATATGRLSSSDPNLQNIPVRTPLGQRIRRAFIAEEGWLLVALDYSQIELRVLAHLSGDKNLIRVFQEGRDIHTETASWMFGVPREAVDPLMRRAAKTINFGVLYGMSAHRLSQELAIPYEEAQAFIERYFQSFPKVRAWLKKTLEEGRRRGYVETLFGRRRYVPDLEARVKSVREAAERMAFNMPVQGTAADLMKLAMVKLFPRLEEMGARMLLQVHDELVLEAPKERAEAVARLAKEVMEGVYPLAVPLEVEVGIGEDWLSAKE
modifications: Klentaq-10
notes: N-terminal deletion at 278 of full-length wild type Taq with substitutions E626K, I707L, E708K
resistance to PCR inhibitors among all 708 mutant variants [1]: superior in all aspects of inhibitors resistance to PCR inhibitors
functionality of the 708 substitution [1]: efficient
amplification in the presence of crude soil extract [5]: outperforming the two commercial Tags; also recorded: amplified successfully
RT-PCR amplification of influenza virus gene [6]: work in RT-PCR
SYBR concentration allowing amplification compared to wild type KlenTaq ([7]; 5% and 10% blood, SYBR dilutions from 64×): at least two times higher concentration of SYBR
resistance toward SYBR green ([7]; with blood (5%, 10%) in the reaction): at least 64 ×
real-time RT-PCR TaqMan detection of influenza virus gene [8]: work in RT-PCR TaqMan assays
SYBR concentration in the presence of which the 0.6 kbp Bacillus cereus target DNA was amplified [4]: 4 ×
resistance toward SYBR green ([4]; no blood in the reaction (comparison value given in Example 3)): 4 ×
amplification/detection of Bacillus anthracis target in blood [9]: specifically amplified the target in 5% blood
SYBR concentration in the presence of which the 0.25 kbp lambda target was amplified [10]: at least 4 ×

B2: wild type KlenTaq: SEQ ID NO: 3; N-terminal deletion at 278 of full-length Taq, Met/Gly replacing amino acids 279 and 280 (protein)
chain: MGLLHEFGLLESPKALEEAPWPPPEGAFVGFVLSRKEPMWADLLALAAARGGRVHRAPEPYKALRDLKEARGLLAKDLSVLALREGLGLPPGDDPMLLAYLLDPSNTTPEGVARRYGGEWTEEAGERAALSERLFANLWGRLEGEERLLWLYREVERPLSAVLAHMEATGVRLDVAYLRALSLEVAEEIARLEAEVFRLAGHPFNLNSRDQLERVLFDELGLPAIGKTEKTGKRSTSAAVLEALREAHPIVEKILQYRELTKLKSTYIDPLPDLIHPRTGRLHTRFNQTATATGRLSSSDPNLQNIPVRTPLGQRIRRAFIAEEGWLLVALDYSQIELRVLAHLSGDENLIRVFQEGRDIHTETASWMFGVPREAVDPLMRRAAKTINFGVLYGMSAHRLSQELAIPYEEAQAFIERYFQSFPKVRAWIEKTLEEGRRRGYVETLFGRRRYVPDLEARVKSVREAAERMAFNMPVQGTAADLMKLAMVKLFPRLEEMGARMLLQVHDELVLEAPKERAEAVARLAKEVMEGVYPLAVPLEVEVGIGEDWLSAKE
modifications: Klentaq-1
melting curve profile in crude soil samples [2]: showed a melting curve at very low SYBR concentration
SYBR concentration above which amplification failed [4]: higher than 1 ×

B3: FLAC-22: SEQ ID NO: 2; full-length Taq with substitutions E626K, I707L, E708N (protein)
chain: MRGMLPLFEPKGRVLLVDGHHLAYRTFHALKGLTTSRGEPVQAVYGFAKSLLKALKEDGDAVIVVFDAKAPSFRHEAYGGYKAGRAPTPEDFPRQLALIKELVDLLGLARLEVPGYEADDVLASLAKKAEKEGYEVRILTADKDLYQLLSDRIHVLHPEGYLITPAWLWEKYGLRPDQWADYRALTGDESDNLPGVKGIGEKTARKLLEEWGSLEALLKNLDRLKPAIREKILAHMDDLKLSWDLAKVRTDLPLEVDFAKRREPDRERLRAFLERLEFGSLLHEFGLLESPKALEEAPWPPPEGAFVGFVLSRKEPMWADLLALAAARGGRVHRAPEPYKALRDLKEARGLLAKDLSVLALREGLGLPPGDDPMLLAYLLDPSNTTPEGVARRYGGEWTEEAGERAALSERLFANLWGRLEGEERLLWLYREVERPLSAVLAHMEATGVRLDVAYLRALSLEVAEEIARLEAEVFRLAGHPFNLNSRDQLERVLFDELGLPAIGKTEKTGKRSTSAAVLEALREAHPIVEKILQYRELTKLKSTYIDPLPDLIHPRTGRLHTRFNQTATATGRLSSSDPNLQNIPVRTPLGQRIRRAFIAEEGWLLVALDYSQIELRVLAHLSGDKNLIRVFQEGRDIHTETASWMFGVPREAVDPLMRRAAKTINFGVLYGMSAHRLSQELAIPYEEAQAFIERYFQSFPKVRAWLNKTLEEGRRRGYVETLFGRRRYVPDLEARVKSVREAAERMAFNMPVQGTAADLMKLAMVKLFPRLEEMGARMLLQVHDELVLEAPKERAEAVARLAKEVMEGVYPLAVPLEVEVGIGEDWLSAKE
modifications: FLAC-22
notes: full-length Taq with substitutions E626K, I707L, E708N
resistance to PCR inhibitors among all 708 mutant variants [1]: superior in all aspects of inhibitors resistance to PCR inhibitors
functionality of the 708 substitution [1]: only functional in Taq
RT-PCR amplification of influenza virus gene [6]: work in RT-PCR
real-time RT-PCR TaqMan detection of influenza virus gene [8]: work in RT-PCR TaqMan assays
amplification under double challenge ([3]; 5% blood): capable of amplifying with all SYBR concentrations
SYBR green necessary for real-time PCR detection ([3]; 5% blood, melting curve analysis): at least 4 ×
resistance toward SYBR green ([3]; with 5% blood in the reaction): at least 32 ×
SYBR concentration in the presence of which the 0.6 kbp Bacillus cereus target DNA was amplified [4]: 1.6 ×
amplification/detection of Bacillus anthracis target in blood [9]: successful real-time PCR detection
SYBR concentration in the presence of which the 0.25 kbp lambda target was amplified [10]: 2 ×
resistance toward SYBR green ([10]; without blood in the reaction (comparison value given in Example 4)): 2 ×
